Data reported in patent US8835136B2, “Engineered amine dehydrogenases and methods of use thereof” (Georgia Tech Research Corporation, priority 2012, dated 2014).

Tests used:
[1] = Temperature versus activity profile (PheDH-AmDH); format: biochemical
Procedure: The thermostability of the double variant K77S N276L was additionally determined by a temperature versus activity plot, showing the results of amination activity measured in 5 M NH4Cl/NH4OH buffer pH 9.6, 200 μM NADH, 20 mM PFPA for 2 minutes (FIG. 17). […] The near linear increase corresponds to a low activation energy of 241 J mol^−1. The maximum specific activity was 11.6 U mg^−1 at a temperature of 50° C. Above 50° C., the enzyme began to rapidly lose activity as a result of denaturation. This deactivation correlated well with the circular dichroism data, where a dramatic loss of secondary structure was observed from 50° C. to 70° C.

[2] = Enantioselectivity of PFPA amination, chiral gas chromatography; format: biochemical; details: chiral GC after TFAA derivatization
From the text: Equally important to conversion is maintaining the selectivity of the enzyme after altering the substrate specificity. Preservation of the wild type (S)-selectivity towards phenylalanine will result in the asymmetric production of (R)-1-(4-fluorophenyl)-propyl-2-amine due to a change in Cahn-Ingold-Prelaw priority. The product amine resulting from enzymatic conversion with the co-factor recycle was isolated and derivatized using trifluoroacetic anhydride for analysis via chiral gas chromatography. An enantiomeric excess of >99.8% toward (R)-1-(4-fluorophenyl)-propyl-2-amine was confirmed, however, further resolution of the selectivity was limited by the separation capability of the chiral column. Throughout all experiments, the (S)-enantiomer remained below the detection limits. Even as the enzyme approaches levels of conversion beyond 90%, the high enantioselectivity toward (R)-1-(4-fluorophenyl)-propyl-2-amine is maintained. This renders the AmDH/GDH system a viable method for the production of chiral amines.

[3] = Reductive amination activity; format: biochemical
[4] = Conversion with GDH cofactor recycle system (PheDH-AmDH); format: biochemical; details: 100 mL, 20 mM PFPA, 48 hours
Procedure: The GDH consumes glucose present in solution to cheaply and efficiently regenerate the NADH cofactor, allowing conversion to continue beyond stoichiometric depletion of NADH. In a 100 mL reaction volume containing 20 mM PFPA, conversion was allowed to continue for 48 hours followed by extraction and ^1H-NMR to confirm the product formation and conversion levels. […] Under the same reaction conditions, 17.46 mg of the AmDH enhanced the overall conversion to 93.8% and 73.9% yield. Evidence of chirality was indicated by different NMR signals of the C3 hydrogens (δ 2.67, 2.49) which are adjacent to the C2 stereocenter (FIG. 18).

[5] = Oxidative deamination, spectrophotometric assay at 340 nm; format: biochemical; details: deamination
Procedure: (§1) Activity of purified proteins was measured using a spectrophotometric assay at 340 nm, corresponding to the cofactor nicotinamide adenine dinucleotide (NADH, ε340=6220 M^−1 cm^−1) (Dawson, et al., Clarendon Press, (1989). For reductive amination, reactions took place in 500 mM NH4Cl/NH4OH at pH 9.6, with 200 μM NADH and 20 mM of the ketone substrate, unless otherwise specified. […] All reactions were performed at 25° C. unless otherwise specified. Enzyme was added in 10 μL aliquots in dilute concentrations. Enzyme concentrations varied upon activity levels with the substrate present, but were dilute enough to ensure linear conversion kinetics over the analytical time period (10 min to 30 min). Specific activities were then calculated from the stoichiometric conversion of cofactor as determine by the change in absorbance at 340 nm over time.

[6] = as above; format: biochemical; details: deamination, 0.1M glycine pH 10.0, 1 mM NAD+, 20 mM, 25° C.
Procedure: as §1
The enantioselectivity was initially estimated by measuring the deamination activity toward individual enantiomers of methylbenzylamine (MBA). […] A preference towards (R)-MBA over the corresponding (S)-enantiomer was evident in the discrepancies between the deamination activities of 0.586 U mg^−1 and 0.002 U mg^−1, respectively. These preliminary results were corroborated through direct measurement of the enantioselectivity of the MIBK amination in producing chiral 1,3-DMBA.

[7] = Kinetic parameter for NADH (PheDH-AmDH); format: biochemical
Procedure: Kinetic parameters, kcat and KM, were determined for the enzyme and each of the reductive amination substrates; respectively. […] The kcat value for this AmDH enzyme with all three substrates saturated in aqueous NH4Cl/NH4OH buffer at pH 9.6 was 6.85 s^−1 at 25° C. This represents a near 15-fold enhancement above the maximum observed kcat of 0.46 s^−1 of the previously developed LeuDH-AmDH.

[8] = Thermostability by circular dichroism (PheDH); format: physicochemical
From the text: The thermostability of the AmDH was compared to its wild-type scaffold using two different methods, circular dichroism (CD) and a temperature versus activity profile. The mutation of the enzyme scaffold has affected the thermostability, in addition to the enzyme's function. […] Beyond 30 degrees, there is an earlier onset in the pronounced loss of structure of the double variant compared to the wild type; however, the slope folded fraction over temperature stays constant, indicative of constant enthalpy of melting. The K77S N276L mutations have slightly destabilized the protein structure, resulting in a melting point of 59.9° C., 4.4° C. less than the wild type. The specific cause for this change is difficult to determine. It likely to be either disruption of the ‘ideal’ packing of the wild-type enzyme's hydrophobic core or a net decrease in hydrophobicity by the amino acid substitutions which leads to a lower folding entropy.

B1: K77S N276L: PheDH-AmDH double variant, SEQ ID NO:2; PheDH library 1 hit 1H4 (protein)
chain: SLVEKTSIIKDFTLFEKMSEHEQVVFCNDPATGLRAIIAIHDTTLGPALGGCRMQPYNSVEEALEDALRLSKGMTYSCAASDVDFGGGKAVIIGDPQKDKSPELFRAFGQFVDSLGGRFYTGTDMGTNMEDFIHAMKETNCIVGVPEAYGGGGDSSIPTAMGVLYGIKATNKMLFGKDDLGGVTYAIQGLGKVGYKVAEGLLEEGAHLFVTDINEQTLEAIQEKAKTTSGSVTVVASDEIYSQEADVFVPCAFGGVVNDETMKQFKVKAIAGSANLQLLTEDHGRHLADKGILYAPDYIVNSGGLIQVADELYEVNKERVLAKTKHIYDAILEVYQQAELDQITTMEAANRMCEQRMAARGRRNSFFTSSVKPKWDIRN
- activation energy ([1]; 10-45° C.): 0.0576 kcal/mol
- maximum specific activity ([1]; at 50° C., 5 M NH4Cl/NH4OH pH 9.6, 200 μM NADH, 20 mM PFPA): 11.6 U mg^−1
- enantiomeric excess toward (R)-1-(4-fluorophenyl)-propyl-2-amine [2]: > 99.8%
- activity level, 1,3 Phenylbutanedione [3]: 30 mU/mg
- conversion of 4-fluorophenyl acetone ([4]; 7.48 mg AmDH): 89.4%
- overall conversion ([4]; 17.46 mg AmDH): 93.8%
- Activity, R/S-MBA ([5]; 40 mM, 20 mM of each enantiomer): 0.5 ± 0.2 mU/mg
- Activity, 1,3-DMBA ([5]; 0.1M glycine pH 10.0, 1 mM NAD+, 20 mM, 25° C.): 166.3 ± 0.0 mU/mg
- Activity, R-MBA [6]: 1.9 ± 1.8 mU/mg
- Activity, S-MBA [6]: <1.0 mU/mg
- Km [7]: 23.9 µM
- decrease of melting point versus the wild type [8]: 4.4 °C
- melting point ([8]; 100 μg mL-1, 50 mM sodium phosphate pH 8.0): 59.9 °C
